Reference: article PMC3723849 (PLoS ONE, 2013)
No end group written: not given here. *: point of attachment. Acm = CC(=O)NC*

B1: Peptide 564 (peptide)
peptide: LSFFSC(Acm)WLRRSFSLT
notes: 15-mer from phage clone G; Made on Rink amide resin, so a C-terminal amide is to be expected (surmised); source: synthetic peptide (HPLC purified)
B2: Peptide 565 (peptide)
peptide: ARMFLLFLMRC(Acm)IGC(Acm)Y
modifications: not fully specified
notes: 15-mer from phage clone C; Made on Rink amide resin, so a C-terminal amide is to be expected (surmised); source: synthetic peptide (HPLC purified)
B3: Phage clone 2 (round 2 of panning) (peptide)
chain: GTAVASRVYSLHSLM
notes: source: phage clone from the fUSE5 15-mer library, amplified in E. coli K91BluKan; not shown: bacteriophage coat protein (fd phage, fUSE5 library), C-terminal, kept

Tests used:
[1] = target: T1, His-tagged PSMA (PSMA-His6), soluble ectodomain of prostate-specific membrane antigen (human, UniProt Q04609 44-750); test: AlphaScreen or HTRF; competition: 563-biotin on streptavidin donor beads, PSMA-His6 on nickel chelate acceptor beads, unlabeled peptide at various concentrations; ambient temperature; 25 mM HEPES, 100 mM NaCl, pH 7.4; IC50 used to approximate KD; settings: both partners purified
T1 construct: prostate-specific membrane antigen (PSMA), human, soluble ectodomain; also called soluble PSMA; poly-histidine tagged PSMA; source: bought: R&D Systems
T1 sequence (Q04609 44-750): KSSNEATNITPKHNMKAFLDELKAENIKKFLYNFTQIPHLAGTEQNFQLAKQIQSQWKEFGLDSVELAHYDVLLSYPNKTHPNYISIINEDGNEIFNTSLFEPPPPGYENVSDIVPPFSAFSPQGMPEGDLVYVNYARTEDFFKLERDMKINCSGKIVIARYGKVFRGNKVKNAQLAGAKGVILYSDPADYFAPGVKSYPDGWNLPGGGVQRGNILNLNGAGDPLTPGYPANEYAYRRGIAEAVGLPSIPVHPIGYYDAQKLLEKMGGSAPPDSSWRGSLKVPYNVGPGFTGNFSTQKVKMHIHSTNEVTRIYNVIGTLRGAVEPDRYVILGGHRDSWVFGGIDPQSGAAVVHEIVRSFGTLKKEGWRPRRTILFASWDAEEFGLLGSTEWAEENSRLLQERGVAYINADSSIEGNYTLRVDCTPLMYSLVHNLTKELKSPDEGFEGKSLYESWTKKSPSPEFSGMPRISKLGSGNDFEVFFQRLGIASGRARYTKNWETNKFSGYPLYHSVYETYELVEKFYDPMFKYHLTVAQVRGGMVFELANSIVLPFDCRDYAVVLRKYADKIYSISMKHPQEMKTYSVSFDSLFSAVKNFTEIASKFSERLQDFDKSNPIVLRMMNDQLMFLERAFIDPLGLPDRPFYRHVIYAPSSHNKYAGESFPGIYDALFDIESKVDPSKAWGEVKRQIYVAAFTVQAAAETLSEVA

[2] = target: T1, His-tagged PSMA (PSMA-His6), soluble …; test: immunostaining of cells or tissue; competition: LNCaP cells pre-incubated with soluble PSMA-His6 (100 nM, 2 h, 37°C) before the phage clones were added; loss of phage staining read by confocal microscopy (rfu in ten cells); settings: both partners purified

Binder | IC50 [1] [nM] | binding result [2]
B1 | 1720 | –
B2 | > 4830 | –
B3 | – | binds
